Changes are numbered by the printed parent chain. Names and notes keep the numbering of the source.
B1: A06 F05-hFc (S239/442C T366Y/Y407T) [G4S]3 conjugated to MC-vc-PAB-MMAE (Fc fusion, DAR 4.0)
chain 1: QVHLVESGGGLVQAGGSLRLSCAASGRTFLSMGWFRQAPGKEREFVAAISWTGGSTGYADSVKGRFTISRESDKETMYLQMNSLKPEDTAVYYCAARGDVYYGGDDATRYKYWGQGTQVTVSSGGGGSGGGGSGGGGSEPKSSDKTHTCPPCPAPELLGGPCVFLFPPKPKDTLMISRTPEVTCVVVDVSHEDPEVKFNWYVDGVEVHNAKTKPREEQYNSTYRVVSVLTVLHQDWLNGKEYKCKVSNKALPAPIEKTISKAKGQPREPQVYTLPPSRDELTKNQVSLYCLVKGFYPSDIAVEWESNGQPENNYKTTPPVLDSDGSFFLYSKLTVDKSRWQQGNVFSCSVMHEALHNHYTQKSLCLSPGK
chain 2: QVQLVESGGGLVQAGGSLRLSCAASGRAFGDYNIGWFRQAPGKEREFVARRTWDGSSTRYDDSVKGRFTVSIDNAKNTAYLQMNSLKTEDTAVYYCAAGRYSRVRGWEYDYWGQGTQVTVSSGGGGSGGGGSGGGGSEPKSSDKTHTCPPCPAPELLGGPCVFLFPPKPKDTLMISRTPEVTCVVVDVSHEDPEVKFNWYVDGVEVHNAKTKPREEQYNSTYRVVSVLTVLHQDWLNGKEYKCKVSNKALPAPIEKTISKAKGQPREPQVYTLPPSRDELTKNQVSLTCLVKGFYPSDIAVEWESNGQPENNYKTTPPVLDSDGSFFLTSKLTVDKSRWQQGNVFSCSVMHEALHNHYTQKSLCLSPGK
modifications: here or on the partner: MC-vc-PAB-MMAE on Cys 239 and Cys 442 (S239C, S442C, EU numbering)
B2: D10 E06-hFc (S239/442C T366Y/Y407T) [G4S]3 conjugated to MC-vc-PAB-MMAE (Fc fusion, DAR 4.0)
chain 1: QVQLVESGGGLVQPGGSLRLSCAASGSIFSVNTMGWYRQAPGKQRDLVAVATSGGTIHYADSVKGRFTISRDNAKNTVYLQMNSLKPEDTAVYYCNLVVPYGMIAGDHDYWGQGTKVTVSSGGGGSGGGGSGGGGSEPKSSDKTHTCPPCPAPELLGGPCVFLFPPKPKDTLMISRTPEVTCVVVDVSHEDPEVKFNWYVDGVEVHNAKTKPREEQYNSTYRVVSVLTVLHQDWLNGKEYKCKVSNKALPAPIEKTISKAKGQPREPQVYTLPPSRDELTKNQVSLYCLVKGFYPSDIAVEWESNGQPENNYKTTPPVLDSDGSFFLYSKLTVDKSRWQQGNVFSCSVMHEALHNHYTQKSLCLSPGK
chain 2: QVHLVESGGGLVQAGGSLRLSCAASRRSFSEYAMGWFRQAPGKEREFVAAIGWSGVIEYADSVKGRFTISRDNAKDTVYLQMNSLKPEDTAVYYCAAGLGIRVVSQTPAYWGQGTQVTVSSGGGGSGGGGSGGGGSEPKSSDKTHTCPPCPAPELLGGPCVFLFPPKPKDTLMISRTPEVTCVVVDVSHEDPEVKFNWYVDGVEVHNAKTKPREEQYNSTYRVVSVLTVLHQDWLNGKEYKCKVSNKALPAPIEKTISKAKGQPREPQVYTLPPSRDELTKNQVSLTCLVKGFYPSDIAVEWESNGQPENNYKTTPPVLDSDGSFFLTSKLTVDKSRWQQGNVFSCSVMHEALHNHYTQKSLCLSPGK
modifications: here or on the partner: MC-vc-PAB-MMAE on Cys 239 and Cys 442 (S239C, S442C, EU numbering)
B3: D10 F05-hFc (S239/442C T366Y/Y407T) [G4S]3 conjugated to MC-vc-PAB-MMAE (Fc fusion, DAR 3.9)
chain 1: B2 chain 1
chain 2: B1 chain 2
modifications: here or on the partner: MC-vc-PAB-MMAE on Cys 239 and Cys 442 (S239C, S442C, EU numbering)
B4: D10 F05-hFc (S239/442C T366Y/Y407T) [G4S]1 conjugated to MC-vc-PAB-MMAE (Fc fusion, DAR 4.0)
chain 1: QVQLVESGGGLVQPGGSLRLSCAASGSIFSVNTMGWYRQAPGKQRDLVAVATSGGTIHYADSVKGRFTISRDNAKNTVYLQMNSLKPEDTAVYYCNLVVPYGMIAGDHDYWGQGTKVTVSSGGGGSEPKSSDKTHTCPPCPAPELLGGPCVFLFPPKPKDTLMISRTPEVTCVVVDVSHEDPEVKFNWYVDGVEVHNAKTKPREEQYNSTYRVVSVLTVLHQDWLNGKEYKCKVSNKALPAPIEKTISKAKGQPREPQVYTLPPSRDELTKNQVSLYCLVKGFYPSDIAVEWESNGQPENNYKTTPPVLDSDGSFFLYSKLTVDKSRWQQGNVFSCSVMHEALHNHYTQKSLCLSPGK
chain 2: QVQLVESGGGLVQAGGSLRLSCAASGRAFGDYNIGWFRQAPGKEREFVARRTWDGSSTRYDDSVKGRFTVSIDNAKNTAYLQMNSLKTEDTAVYYCAAGRYSRVRGWEYDYWGQGTQVTVSSGGGGSEPKSSDKTHTCPPCPAPELLGGPCVFLFPPKPKDTLMISRTPEVTCVVVDVSHEDPEVKFNWYVDGVEVHNAKTKPREEQYNSTYRVVSVLTVLHQDWLNGKEYKCKVSNKALPAPIEKTISKAKGQPREPQVYTLPPSRDELTKNQVSLTCLVKGFYPSDIAVEWESNGQPENNYKTTPPVLDSDGSFFLTSKLTVDKSRWQQGNVFSCSVMHEALHNHYTQKSLCLSPGK
modifications: here or on the partner: MC-vc-PAB-MMAE on Cys 239 and Cys 442 (S239C, S442C, EU numbering)
B5: D10 E10-hFc (S239/442C T366Y/Y407T), [G4S]1 linker, MC-vc-PAB-MMAE conjugate, #678 (Fc fusion, DAR 4)
chain 1: B4 chain 1
chain 2: B4 chain 2 with A24V, F29L, G30S, R51K, D73E, N74D, N84S, V104A
modifications: here or on the partner: MC-vc-PAB-MMAE on Cys of S239C and S442C (EU numbering)
B6: D10 E06-hFc (S239/442C T366Y/Y407T), [G4S]1 linker, MC-vc-PAB-MMAE conjugate, #677 (Fc fusion, DAR 4)
chain 1: B4 chain 1
chain 2: QVHLVESGGGLVQAGGSLRLSCAASRRSFSEYAMGWFRQAPGKEREFVAAIGWSGVIEYADSVKGRFTISRDNAKDTVYLQMNSLKPEDTAVYYCAAGLGIRVVSQTPAYWGQGTQVTVSSGGGGSEPKSSDKTHTCPPCPAPELLGGPCVFLFPPKPKDTLMISRTPEVTCVVVDVSHEDPEVKFNWYVDGVEVHNAKTKPREEQYNSTYRVVSVLTVLHQDWLNGKEYKCKVSNKALPAPIEKTISKAKGQPREPQVYTLPPSRDELTKNQVSLTCLVKGFYPSDIAVEWESNGQPENNYKTTPPVLDSDGSFFLTSKLTVDKSRWQQGNVFSCSVMHEALHNHYTQKSLCLSPGK
modifications: here or on the partner: MC-vc-PAB-MMAE on Cys of S239C and S442C (EU numbering)
B7: A06 F05-hFc (S239/442C T366Y/Y407T), [G4S]1 linker, MC-vc-PAB-MMAE conjugate, #712 (Fc fusion, DAR 4)
chain 1: QVHLVESGGGLVQAGGSLRLSCAASGRTFLSMGWFRQAPGKEREFVAAISWTGGSTGYADSVKGRFTISRESDKETMYLQMNSLKPEDTAVYYCAARGDVYYGGDDATRYKYWGQGTQVTVSSGGGGSEPKSSDKTHTCPPCPAPELLGGPCVFLFPPKPKDTLMISRTPEVTCVVVDVSHEDPEVKFNWYVDGVEVHNAKTKPREEQYNSTYRVVSVLTVLHQDWLNGKEYKCKVSNKALPAPIEKTISKAKGQPREPQVYTLPPSRDELTKNQVSLYCLVKGFYPSDIAVEWESNGQPENNYKTTPPVLDSDGSFFLYSKLTVDKSRWQQGNVFSCSVMHEALHNHYTQKSLCLSPGK
chain 2: B4 chain 2
modifications: here or on the partner: MC-vc-PAB-MMAE on Cys of S239C and S442C (EU numbering)
B8: D10 F05-hFc (S239/442C T366Y/Y407T), [G4S]1 linker, MC-vc-PAB-MMAE conjugate, #679 (Fc fusion, DAR 4)
chain 1: B4 chain 1
chain 2: B4 chain 2
modifications: here or on the partner: MC-vc-PAB-MMAE on Cys of S239C and S442C (EU numbering)

Columns and labels:
[1] = target: ALPP/ALPPL2 on ALPP/ALPPL2 positive cancer cells; test: cell-based or functional assay
[2] = target: ALPP/ALPPL2 on ALPP/ALPPL2 positive cancer cells (MKN1, NCI-H1651, NCI-N87, Caov-3, HPAC); test: cell-based or functional assay
Wherever % viability remaining at 96 h, MKN1 cells is given: test concentration or dose not given here.
Wherever % viability remaining at 96 h, NCI-N87 cells is given: test concentration or dose not given here.

| Binder | % viability remaining, MDA-MB-468 cells [1] [%] | % viability remaining, MKN-1 cells [1] [%] | % viability remaining, NCI-H1651 cells [1] [%] | % viability remaining, NCI-N87 cells [1] [%] | IC50 at 96 h (nM), cell-killing of MDA-MB-468 cells (Cell Titre Glo) [1] [nM] | IC50 at 96 h (nM), cell-killing of MKN-1 cells (Cell Titre Glo) [1] [nM] | IC50 at 96 h (nM), cell-killing of NCI-H1651 cells (Cell Titre Glo) [1] [nM] | IC50 at 96 h (nM), cell-killing of NCI-N87 cells (Cell Titre Glo) [1] [nM] | % viability remaining at 96 h, MKN1 cells [2] [%] | % viability remaining at 96 h, NCI-H1651 cells [2] [%] | % viability remaining at 96 h, NCI-N87 cells [2] [%] | IC50 at 96 h, cell-killing of MKN1 cells [2] [nM] | IC50 at 96 h, cell-killing of NCI-H1651 cells [2] [nM] | IC50 at 96 h, cell-killing of NCI-N87 cells [2] [nM] |
| --- | --- | --- | --- | --- | --- | --- | --- | --- | --- | --- | --- | --- | --- | --- |
| B1 | 17 | 16 | 22 | 36 | 12 | 0.26 | 0.47 | 7.9 |  |  |  |  |  |  |
| B2 | 16 | 12 | 21 | 34 | 1.55 | 0.1 | 0.53 | 3.6 |  |  |  |  |  |  |
| B3 | 17 | 13 | 22 | 37 | 0.96 | 0.12 | 0.74 | 1.8 |  |  |  |  |  |  |
| B4 | 17 | 16 | 22 | 35 | 2.36 | 0.14 | 0.85 | 2 |  |  |  |  |  |  |
| B5 |  |  |  |  |  |  |  |  | 24.5 | 31 | 23.6 | 8.1 | 0.6 | 0.5 |
| B6 |  |  |  |  |  |  |  |  | 5.3 | 28.9 | 25.5 | 31.8 | 1.3 | 0.6 |
| B7 |  |  |  |  |  |  |  |  | 27.1 | 31.3 | 20.7 | 45.9 | 0.9 | 0.7 |
| B8 |  |  |  |  |  |  |  |  | 25.2 | 31.2 | 21.8 | 9.7 | 0.8 | 0.6 |
